From article PMC10397247
Where two headings read alike, the source gives them in different places. Values belong to the binder of their own block, whether it stands above or below them.

Experiments:
4H3015-AA = molecular target: T1, 4H3015-AA; test: two-hybrid library CCmax; settings: mean of both orientations;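 further: natural log of median RNA to DNA barcode read ratio; higher means stronger binding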
T1 chain: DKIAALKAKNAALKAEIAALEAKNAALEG

4H_BCR = molecular target: T2, 4H_BCR; test: two-hybrid library CCmax; settings: mean of both orientations;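 further: natural log of median RNA to DNA barcode read ratio; higher means stronger binding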
T2 chain: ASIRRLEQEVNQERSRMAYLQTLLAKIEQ

4H_APH = molecular target: T3, 4H_APH; test: two-hybrid library CCmax; settings: mean of both orientations;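 further: natural log of median RNA to DNA barcode read ratio; higher means stronger binding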
T3 chain: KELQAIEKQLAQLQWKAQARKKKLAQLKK

4H3438-AA = molecular target: T4, 4H3438-AA; test: two-hybrid library CCmax; settings: mean of both orientations;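 further: natural log of median RNA to DNA barcode read ratio; higher means stronger binding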
T4 chain: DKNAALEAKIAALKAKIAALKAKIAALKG

4H56-AA = molecular target: T5, 4H56-AA; test: two-hybrid library CCmax; settings: mean of both orientations
T5 chain: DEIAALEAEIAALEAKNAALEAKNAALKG

4H406-AA = molecular target: T6, 4H406-AA; test: two-hybrid library CCmax; settings: mean of both orientations
T6 chain: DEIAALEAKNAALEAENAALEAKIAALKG

4H452-AA = molecular target: T7, 4H452-AA; test: two-hybrid library CCmax; settings: mean of both orientations
T7 chain: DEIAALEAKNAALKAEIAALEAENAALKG

4H2931-AA = molecular target: T8, 4H2931-AA; test: two-hybrid library CCmax
T8 chain: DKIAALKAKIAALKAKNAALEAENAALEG

4H3001-AA = molecular target: T9, 4H3001-AA; test: two-hybrid library CCmax; settings: mean of both orientations
T9 chain: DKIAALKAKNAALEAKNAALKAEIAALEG

GCN2_T = test: two-hybrid library CCmax
4H3073-AA = molecular target: T10, 4H3073-AA; test: two-hybrid library CCmax
T10 chain: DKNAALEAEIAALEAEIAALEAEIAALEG

4H_GCN4 = test: two-hybrid library CCmax
4H347-AA = molecular target: T11, 4H347-AA; test: two-hybrid library CCmax; settings: mean of both orientations
T11 chain: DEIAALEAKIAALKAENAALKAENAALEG

4H741-bA = molecular target: T12, 4H741-bA; test: two-hybrid library CCNG1
T12 chain: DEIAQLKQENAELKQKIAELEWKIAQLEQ

4H348-bA = molecular target: T13, 4H348-bA; test: two-hybrid library CCNG1
T13 chain: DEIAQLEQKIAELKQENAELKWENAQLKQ

4H40-bA = molecular target: T14, 4H40-bA; test: two-hybrid library CCNG1
T14 chain: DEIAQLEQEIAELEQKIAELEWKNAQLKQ

4H492-bA = molecular target: T15, 4H492-bA; test: two-hybrid library CCNG1
T15 chain: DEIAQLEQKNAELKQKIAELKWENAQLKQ

4H477-bA = molecular target: T16, 4H477-bA; test: two-hybrid library CCNG1
T16 chain: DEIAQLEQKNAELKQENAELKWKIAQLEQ

4H949-bA = molecular target: T17, 4H949-bA; test: two-hybrid library CCNG1
T17 chain: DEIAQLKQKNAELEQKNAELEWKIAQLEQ

4H4038-AA = molecular target: T18, 4H4038-AA; test: two-hybrid library CCmax
T18 chain: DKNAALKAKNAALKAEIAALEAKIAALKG

4H43-AA = molecular target: T19, 4H43-AA; test: two-hybrid library CCmax; settings: mean of both orientations
T19 chain: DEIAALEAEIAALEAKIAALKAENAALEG

4H451-AA = molecular target: T20, 4H451-AA; test: two-hybrid library CCmax; settings: mean of both orientations
T20 chain: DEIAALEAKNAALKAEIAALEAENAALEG

O13-AA = molecular target: T21, O13-AA; test: two-hybrid library CCmax; settings: mean of both orientations
T21 chain: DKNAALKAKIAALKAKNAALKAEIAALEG

4H510-AA = molecular target: T22, 4H510-AA; test: two-hybrid library CCmax; settings: mean of both orientations
T22 chain: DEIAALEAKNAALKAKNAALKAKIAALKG

O11-AA = molecular target: T23, O11-AA; test: two-hybrid library CCmax; settings: mean of both orientations
T23 chain: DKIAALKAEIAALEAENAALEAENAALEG

O14-AA = molecular target: T24, O14-AA; test: two-hybrid library CCmax; settings: mean of both orientations
T24 chain: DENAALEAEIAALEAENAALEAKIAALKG

4H3381-bN = molecular target: T25, 4H3381-bN; test: two-hybrid library CCNG1
T25 chain: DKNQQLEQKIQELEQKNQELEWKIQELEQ

4H949-bN = molecular target: T26, 4H949-bN; test: two-hybrid library CCNG1
T26 chain: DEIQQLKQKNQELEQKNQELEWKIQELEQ

4H56-bN = molecular target: T27, 4H56-bN; test: two-hybrid library CCNG1
T27 chain: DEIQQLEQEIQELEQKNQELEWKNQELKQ

4H796-bN = molecular target: T28, 4H796-bN; test: two-hybrid library CCNG1
T28 chain: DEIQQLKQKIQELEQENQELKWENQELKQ

4H730-bN = molecular target: T29, 4H730-bN; test: two-hybrid library CCNG1
T29 chain: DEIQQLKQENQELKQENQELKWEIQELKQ

4H932-bN = molecular target: T30, 4H932-bN; test: two-hybrid library CCNG1
T30 chain: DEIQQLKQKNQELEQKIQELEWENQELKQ

4H349-bN = molecular target: T31, 4H349-bN; test: two-hybrid library CCNG1
T31 chain: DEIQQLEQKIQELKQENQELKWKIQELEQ

4H492-bN = molecular target: T32, 4H492-bN; test: two-hybrid library CCNG1
T32 chain: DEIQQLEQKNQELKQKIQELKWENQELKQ

4H477-bN = molecular target: T33, 4H477-bN; test: two-hybrid library CCNG1
T33 chain: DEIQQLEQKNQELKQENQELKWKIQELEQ

4H741-bN = molecular target: T34, 4H741-bN; test: two-hybrid library CCNG1
T34 chain: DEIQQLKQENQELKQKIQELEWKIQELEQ

4H40-bN = molecular target: T35, 4H40-bN; test: two-hybrid library CCNG1
T35 chain: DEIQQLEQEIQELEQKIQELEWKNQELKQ

4H55-AA = molecular target: T36, 4H55-AA; test: two-hybrid library CCmax; settings: mean of both orientations
T36 chain: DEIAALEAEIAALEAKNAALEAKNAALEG

4H3922-AA = molecular target: T37, 4H3922-AA; test: two-hybrid library CCmax; settings: mean of both orientations
T37 chain: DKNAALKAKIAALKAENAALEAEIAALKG

4H369-AA = molecular target: T38, 4H369-AA; test: two-hybrid library CCmax; settings: mean of both orientations
T38 chain: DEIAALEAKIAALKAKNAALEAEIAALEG

4H3664-AA = molecular target: T39, 4H3664-AA; test: two-hybrid library CCmax
T39 chain: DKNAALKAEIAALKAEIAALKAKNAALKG

4H662-AA = molecular target: T40, 4H662-AA; test: two-hybrid library CCmax; settings: mean of both orientations
T40 chain: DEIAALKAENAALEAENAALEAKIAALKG

4H4033-AA = molecular target: T41, 4H4033-AA; test: two-hybrid library CCmax; settings: mean of both orientations
T41 chain: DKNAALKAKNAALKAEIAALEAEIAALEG

4H481-AA = molecular target: T42, 4H481-AA; test: two-hybrid library CCmax; settings: mean of both orientations
T42 chain: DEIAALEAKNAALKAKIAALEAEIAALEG

4H_GCN4, sequence (chain, as listed by the source): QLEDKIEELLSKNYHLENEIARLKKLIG

B1: 4H2931-AA (peptide)
chain: DKIAALKAKIAALKAKNAALEAENAALEG
interaction score (4H3015-AA): -2.54
interaction score (4H_BCR): -1.73
interaction score (4H_APH): -1.87
interaction score (4H3438-AA): -1.54
interaction score (4H56-AA): 1.81
interaction score (4H406-AA): -0.98
interaction score (4H452-AA): -1.98
interaction score (4H2931-AA): -1.66
interaction score (4H3001-AA): -1.79
interaction score (GCN2_T): -2.11
interaction score (4H3073-AA): 0.803
interaction score (4H_GCN4; mean of both orientations): -2.51
interaction score (4H347-AA): -1.41

B2: 4H348-bA (peptide)
chain: DEIAQLEQKIAELKQENAELKWENAQLKQ
interaction score (4H741-bA): -0.761
interaction score (4H348-bA): 0.473
interaction score (4H40-bA): -0.298
interaction score (4H492-bA): -0.0783
interaction score (4H477-bA): -1.23

B4: 4H4038-AA (peptide)
chain: DKNAALKAKNAALKAEIAALEAKIAALKG
interaction score (4H_BCR): -1.53
interaction score (4H_APH): -2.34
interaction score (4H4038-AA): -0.654
interaction score (4H43-AA): 0.922
interaction score (4H451-AA): -1.08
interaction score (GCN2_T): -1.9
interaction score (O13-AA): -2.19
interaction score (4H510-AA): -1.16
interaction score (O11-AA): -1.13
interaction score (4H_GCN4): -1.46
interaction score (O14-AA): 1.56

B5: 4H3381-bN (peptide)
chain: DKNQQLEQKIQELEQKNQELEWKIQELEQ
interaction score (4H3381-bN): 0.302
interaction score (4H949-bN): -1.1
interaction score (4H56-bN): -1.09
interaction score (4H796-bN): -1.3
interaction score (4H730-bN): -1.25
interaction score (4H932-bN): -0.998
interaction score (4H349-bN): -0.946

B7: 4H3664-AA (peptide)
chain: DKNAALKAEIAALKAEIAALKAKNAALKG
interaction score (4H55-AA): -1.04
interaction score (4H3922-AA): -1.57
interaction score (4H369-AA): -1.44
interaction score (4H3664-AA): 0.563
interaction score (4H662-AA): -1.5
interaction score (4H4033-AA): -1.55
interaction score (4H481-AA): -1.04

More lines, now with the values ahead:

interaction score (4H949-bA): -1.8
interaction score (4H741-bA): -0.423
interaction score (4H40-bA): 1.76
interaction score (4H492-bA): 1.72
interaction score (4H477-bA): -1.02
B3: 4H40-bA (peptide)
chain: DEIAQLEQEIAELEQKIAELEWKNAQLKQ

interaction score (4H492-bN): -0.862
interaction score (4H477-bN): 0.0764
interaction score (4H741-bN): -0.956
interaction score (4H40-bN): 0.212
B6: 4H40-bN (peptide)
chain: DEIQQLEQEIQELEQKIQELEWKNQELKQ
